In patent publication US20250051476A1 (ABDERA THERAPEUTICS, published 2025):
Read-outs that look alike come from different tables or passages of the source.

T1: human DLL3 on cells (human, UniProt Q9NYJ7 27-618)
T1 sequence (looked up): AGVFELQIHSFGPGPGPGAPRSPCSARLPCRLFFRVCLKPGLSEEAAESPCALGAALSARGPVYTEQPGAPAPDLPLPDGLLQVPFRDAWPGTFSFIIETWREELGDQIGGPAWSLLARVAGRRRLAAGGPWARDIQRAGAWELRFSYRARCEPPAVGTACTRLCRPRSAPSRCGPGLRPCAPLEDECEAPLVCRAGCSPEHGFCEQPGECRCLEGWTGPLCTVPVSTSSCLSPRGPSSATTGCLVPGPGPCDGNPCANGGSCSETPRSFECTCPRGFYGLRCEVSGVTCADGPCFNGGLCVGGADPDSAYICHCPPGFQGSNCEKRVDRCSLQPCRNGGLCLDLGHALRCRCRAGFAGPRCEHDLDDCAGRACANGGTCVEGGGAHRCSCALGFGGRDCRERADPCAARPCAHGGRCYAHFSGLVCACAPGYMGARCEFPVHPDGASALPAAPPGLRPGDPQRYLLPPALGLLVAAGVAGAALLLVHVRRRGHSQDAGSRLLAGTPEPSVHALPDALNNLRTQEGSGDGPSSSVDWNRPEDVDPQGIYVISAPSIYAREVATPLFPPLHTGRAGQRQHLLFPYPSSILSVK

T2: DLL3 on cells (SHP-77, NCI-H82, HEK-DLL3, membrane proteome array cells) (human, UniProt Q9NYJ7 27-618)
T2 construct: whole, on cells; also called hDLL3
T2 sequence (looked up): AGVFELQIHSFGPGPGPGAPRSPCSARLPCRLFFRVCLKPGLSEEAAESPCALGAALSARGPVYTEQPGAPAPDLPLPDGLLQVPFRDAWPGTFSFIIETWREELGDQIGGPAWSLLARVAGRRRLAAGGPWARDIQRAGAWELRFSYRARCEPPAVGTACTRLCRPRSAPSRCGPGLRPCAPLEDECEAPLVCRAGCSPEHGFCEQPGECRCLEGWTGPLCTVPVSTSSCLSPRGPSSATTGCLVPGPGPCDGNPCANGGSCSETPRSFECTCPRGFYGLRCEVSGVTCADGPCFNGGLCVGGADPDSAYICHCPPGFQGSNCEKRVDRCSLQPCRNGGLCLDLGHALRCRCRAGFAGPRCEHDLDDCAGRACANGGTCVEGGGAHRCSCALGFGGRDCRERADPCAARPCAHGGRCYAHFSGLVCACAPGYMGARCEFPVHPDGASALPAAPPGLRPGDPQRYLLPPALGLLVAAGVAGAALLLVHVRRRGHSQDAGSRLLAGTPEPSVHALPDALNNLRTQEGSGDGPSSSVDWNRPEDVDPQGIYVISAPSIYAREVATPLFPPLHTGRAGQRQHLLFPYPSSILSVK

T3: DLL3 EGF1-6(mIgG2aCH2-CH3) (human)
T3 construct: also called hDLL3 EGF domain construct; DLL3 EGF1-6 domain
T3 chain: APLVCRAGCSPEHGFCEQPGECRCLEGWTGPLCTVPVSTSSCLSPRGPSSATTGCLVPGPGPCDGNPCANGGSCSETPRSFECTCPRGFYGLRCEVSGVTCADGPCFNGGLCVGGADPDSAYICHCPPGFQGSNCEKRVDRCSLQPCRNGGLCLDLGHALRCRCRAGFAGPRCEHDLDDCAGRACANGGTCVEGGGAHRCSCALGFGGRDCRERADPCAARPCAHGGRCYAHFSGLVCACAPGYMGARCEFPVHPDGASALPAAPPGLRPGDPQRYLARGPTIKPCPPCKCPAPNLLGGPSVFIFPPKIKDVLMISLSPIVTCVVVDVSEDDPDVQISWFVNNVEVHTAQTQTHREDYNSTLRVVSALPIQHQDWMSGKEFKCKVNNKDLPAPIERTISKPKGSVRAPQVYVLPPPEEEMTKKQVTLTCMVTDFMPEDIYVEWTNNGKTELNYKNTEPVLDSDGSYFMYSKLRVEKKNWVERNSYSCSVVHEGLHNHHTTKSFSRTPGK

T4: mouse DLL3 (mouse, UniProt O88516 25-477, limits assumed)
T4 construct: also called mDLL3; murine DLL3
T4 sequence (looked up): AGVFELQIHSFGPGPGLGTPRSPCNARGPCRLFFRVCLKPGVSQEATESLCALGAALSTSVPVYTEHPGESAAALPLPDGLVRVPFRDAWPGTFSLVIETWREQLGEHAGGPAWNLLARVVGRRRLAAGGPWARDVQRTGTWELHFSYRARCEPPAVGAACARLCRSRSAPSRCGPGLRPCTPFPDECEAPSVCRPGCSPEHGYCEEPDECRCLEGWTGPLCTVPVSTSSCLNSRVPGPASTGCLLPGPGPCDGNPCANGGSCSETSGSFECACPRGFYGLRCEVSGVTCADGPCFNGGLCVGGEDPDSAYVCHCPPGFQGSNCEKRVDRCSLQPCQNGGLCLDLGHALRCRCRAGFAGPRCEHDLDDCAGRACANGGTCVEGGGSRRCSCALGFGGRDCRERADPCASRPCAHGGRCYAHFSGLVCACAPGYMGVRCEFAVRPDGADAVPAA

T5: hDLL3 EGF1-6 (aa 216-492) fused to mIgG2a CH2-CH3 Fc (human)
T5 construct: also called DLL3 EGF1-6(mIgG2aCH2-CH3); hDLL3 EGF domain construct
T5 chain: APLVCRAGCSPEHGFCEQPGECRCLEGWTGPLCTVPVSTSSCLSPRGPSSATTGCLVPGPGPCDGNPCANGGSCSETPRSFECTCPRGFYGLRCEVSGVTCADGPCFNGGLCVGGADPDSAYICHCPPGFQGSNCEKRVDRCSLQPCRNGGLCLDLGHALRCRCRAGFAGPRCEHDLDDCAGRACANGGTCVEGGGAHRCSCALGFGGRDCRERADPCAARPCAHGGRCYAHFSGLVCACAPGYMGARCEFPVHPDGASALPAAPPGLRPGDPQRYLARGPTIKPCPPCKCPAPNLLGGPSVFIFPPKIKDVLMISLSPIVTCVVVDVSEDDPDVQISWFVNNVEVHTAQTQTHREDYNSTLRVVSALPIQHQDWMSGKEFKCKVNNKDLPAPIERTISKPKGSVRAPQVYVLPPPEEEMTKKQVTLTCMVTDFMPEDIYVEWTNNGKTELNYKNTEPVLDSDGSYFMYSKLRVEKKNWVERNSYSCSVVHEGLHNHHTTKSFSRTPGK


Columns and labels:
human DLL3 on cells = biological target: T1, human DLL3 on cells; test: cell-based or functional assay
[1] = biological target: T2, DLL3 on cells (SHP-77, NCI-H82, …); test: flow cytometry on SHP-77 cells, Geomeans RL1-H
[2] = biological target: T3, DLL3 EGF1-6(mIgG2aCH2-CH3); test: Octet BLI, VHH-Fc captured on AHC sensor, DLL3 EGF1-6-mIgG2a Fc titrated
Experimental: Sensors were regenerated with Glycine pH 1.7 and sample buffer was PBS/0.02% Tween-20/0.1% BSA, pH 7.4. Data was analyzed using Octet Analysis software.

[3] = biological target: T2, DLL3 on cells (SHP-77, NCI-H82, …); test: flow cytometry on SHP-77 cells, Geomeans RL1-H; remark: listed apart in the source
mouse DLL3 = biological target: T4, mouse DLL3; test: ELISA
[4] = biological target: T5, hDLL3 EGF1-6 (aa 216-492) fused to …; test: ELISA on coated hDLL3 EGF1-6-mIgG2a Fc (2 ug/ml), anti-hIgG-Fc-HRP, A450
Experimental: Plates were washed 3 times with dH2O, and blocked with 100 ul 5% skim milk for 1 h, RT. Test VHHFcs and control antibodies were diluted in block in a 1:4 serial titration from 100 nM to 0.01 nM, and incubated for 1 h, RT. […] Plate was washed 3 times with H₂O, and wells incubated with 50 ul TMB substrate for 4-5 min at RT. The reaction was quenched with 50 ul/well 1N HCl. The plate was read on a Synergy Neo2 at absorbance 450 nm.

Binder | H435Q-Fc SHP-77 Internalization FOI (human DLL3 on cells) [FOI] | binding result [4] | other results
Clone 24 VHH-Fc with H435Q Fc (Fc fusion) QVQYVESGGGLVQPGGSLRLSCAASGFTFSSYRINWYRQPPGKGRELVGSITDTGSTNYADSVKGRFTISRDNAKNTVYLQMSSLKPEDTAVYYCRAPTIAAYWGQGTQVTVSSAPELLGGPSVFLFPPKPKDTLMISRTPEVTCVVVDVSHEDPEVKFNWYVDGVEVHNAKTKPREEQYNSTYRVVSVLTVLHQDWLNGKEYKCKVSNKALPAPIEKTISKAKGQPREPQVYTLPPSREEMTKNQVSLTCLVKGFYPSDIAVEWESNGQPENNYKTTPPVLDSDGSFFLYSKLTVDKSRWQQGNVFSCSVMHEALHNQYTQKSLSLSPG | 1.19 |  | 
Clone 100 VHH-Fc with H435Q Fc (Fc fusion) QVQLVESGGGSVQPGGSLRLSCAASGIVFNSDVMGWYRQVPGKPRELVATITGGGSTNYATSVKGRFTISRDNAKNTVYLQMNSLRPEDTAVYYCNGRRGDSMLAFWAQGTQVTVSSAPELLGGPSVFLFPPKPKDTLMISRTPEVTCVVVDVSHEDPEVKFNWYVDGVEVHNAKTKPREEQYNSTYRVVSVLTVLHQDWLNGKEYKCKVSNKALPAPIEKTISKAKGQPREPQVYTLPPSREEMTKNQVSLTCLVKGFYPSDIAVEWESNGQPENNYKTTPPVLDSDGSFFLYSKLTVDKSRWQQGNVFSCSVMHEALHNQYTQKSLSLSPG | 1.19 |  | 
Clone 107 VHH-Fc with H435Q Fc (Fc fusion) QVQLVESGGGLVQAGDSLRLSCVASDRTFSSYAVGWFRQAPGKEREFVAAISWNGGRTLYTDSVTGRFTISRDNAKSTVYLQMNGLKPEDTAVYYCAARPAAPTRRLEYDYWGQGTQVTVSSAPELLGGPSVFLFPPKPKDTLMISRTPEVTCVVVDVSHEDPEVKFNWYVDGVEVHNAKTKPREEQYNSTYRVVSVLTVLHQDWLNGKEYKCKVSNKALPAPIEKTISKAKGQPREPQVYTLPPSREEMTKNQVSLTCLVKGFYPSDIAVEWESNGQPENNYKTTPPVLDSDGSFFLYSKLTVDKSRWQQGNVFSCSVMHEALHNQYTQKSLSLSPG | 1.27 |  | 
Clone 126 VHH-Fc with H435Q Fc (Fc fusion) QVQLVESGGGMVQPGGSLRLSCAASGITFSMYSMSWYRQPPGKQRELVAATTTFGSTNYADSVKGRFTISRDNAKNTVYLQMNSLKPEDTAVYLCNARFTSEEYWGQGTQVTVSSAPELLGGPSVFLFPPKPKDTLMISRTPEVTCVVVDVSHEDPEVKFNWYVDGVEVHNAKTKPREEQYNSTYRVVSVLTVLHQDWLNGKEYKCKVSNKALPAPIEKTISKAKGQPREPQVYTLPPSREEMTKNQVSLTCLVKGFYPSDIAVEWESNGQPENNYKTTPPVLDSDGSFFLYSKLTVDKSRWQQGNVFSCSVMHEALHNQYTQKSLSLSPG | 1.19 |  | 
Clone 186 VHH-Fc with H435Q Fc (Fc fusion) QVQVVESGGGLVQPGGSLTLSCAASGFDFSTYTVNWYRQAPGKEREKVARISSTGTTTNYANSAKGRFTLSRDNAKNRVYLQMNNLKPEDTAVYFCNFERFDSNYWGQGTQVTVSSAPELLGGPSVFLFPPKPKDTLMISRTPEVTCVVVDVSHEDPEVKFNWYVDGVEVHNAKTKPREEQYNSTYRVVSVLTVLHQDWLNGKEYKCKVSNKALPAPIEKTISKAKGQPREPQVYTLPPSREEMTKNQVSLTCLVKGFYPSDIAVEWESNGQPENNYKTTPPVLDSDGSFFLYSKLTVDKSRWQQGNVFSCSVMHEALHNQYTQKSLSLSPG | 1.18 |  | 
107_zu2 (Fc fusion, Humanized VHH-Fc) QVQLVESGGGLVQPGGSLRLSCAASDRTFSSYAVGWFRQAPGQGLEFVAAISWNGGRTLYTDSVTGRFTISRDNSKNTLYLQMNSLRAEDTAVYYCAARPAAPTRRLEYDYWGQGTLVTVSSEPKSSDKTHTCPPCPAPEAEGAPSVFLFPPKPKDTLMISRTPEVTCVVVDVSHEDPEVKFNWYVDGVEVHNAKTKPREEQYNSTYRVVSVLTVLHQDWLNGKEYKCKVSNKALPSSIEKTISKAKGQPREPQVYTLPPSREEMTKNQVSLTCLVKGFYPSDIAVEWESNGQPENNYKTTPPVLDSDGSFFLYSKLTVDKSRWQQGNVFSCSVMHEALHNQYTQKSLSLSPG |  |  | EC50 (read off the curve) [1]: ~0.2 nM; Kd [2]: 5.04 nM; koff [2]: 0.000513 s⁻¹; kon [2]: 102000 M⁻¹ s⁻¹; EC50 (read off the curve) [3]: ~0.2 nM
126_zu2 (Fc fusion, Humanized VHH-Fc) QVQLVESGGGLVQPGGSLRLSCAASGITFSMYSMSWFRQAPGQGLELVAATTTFGSTNYADSVKGRFTISRDNSKNTLYLQMNSLRAEDTAVYYCAARFTSEEYWGQGTLVTVSSEPKSSDKTHTCPPCPAPEAEGAPSVFLFPPKPKDTLMISRTPEVTCVVVDVSHEDPEVKFNWYVDGVEVHNAKTKPREEQYNSTYRVVSVLTVLHQDWLNGKEYKCKVSNKALPSSIEKTISKAKGQPREPQVYTLPPSREEMTKNQVSLTCLVKGFYPSDIAVEWESNGQPENNYKTTPPVLDSDGSFFLYSKLTVDKSRWQQGNVFSCSVMHEALHNQYTQKSLSLSPG |  |  | EC50 (read off the curve) [1]: ~0.07 nM; binding result [2]: no binding; EC50 (read off the curve) [3]: ~0.1 nM; binding result (mouse DLL3): no binding
24 (Fc fusion, same clone as 1.m43, 2.m5, 3.m7, 3.m51, 4.m1; also called Clone 24) VHH-Fc chain: QVQYVESGGGLVQPGGSLRLSCAASGFTFSSYRINWYRQPPGKGRELVGSITDTGSTNYADSVKGRFTISRDNAKNTVYLQMSSLKPEDTAVYYCRAPTIAAYWGQGTQVTVSS |  | binds | 
100 (Fc fusion, same clone as 1.m44, 2.m24, 3.m26, 3.m53, 4.m7; also called Clone 100) VHH-Fc chain: QVQLVESGGGSVQPGGSLRLSCAASGIVFNSDVMGWYRQVPGKPRELVATITGGGSTNYATSVKGRFTISRDNAKNTVYLQMNSLRPEDTAVYYCNGRRGDSMLAFWAQGTQVTVSS |  | binds | 
107 (Fc fusion, same clone as 1.m45, 2.m28, 3.m30, 3.m55, 4.m13) VHH-Fc chain: QVQLVESGGGLVQAGDSLRLSCVASDRTFSSYAVGWFRQAPGKEREFVAAISWNGGRTLYTDSVTGRFTISRDNAKSTVYLQMNGLKPEDTAVYYCAARPAAPTRRLEYDYWGQGTQVTVSS |  | binds | 
126 (parental VHHFc of Example 41) (Fc fusion, Parental VHHFc; not shown: hinge and Fc) QVQLVESGGGMVQPGGSLRLSCAASGITFSMYSMSWYRQPPGKQRELVAATTTFGSTNYADSVKGRFTISRDNAKNTVYLQMNSLKPEDTAVYLCNARFTSEEYWGQGTQVTVSS |  | no binding (tested: 100 nM) | 
